Assays:
[1] = molecular target: T1, Recombinant Human DLL4 (R&D Systems Cat#1506-D4/CF) (human, UniProt Q9NR61 27-524); experiment: ELISA, DLL4 coated on plate, Fab at 100 nM, absorbance at 450 nm
T1 construct: also called delta-like protein 4; rHuman DLL4

[2] = molecular target: T2, Recombinant Human DLL4 (R&D Systems Cat#1506-D4/CF) (human, UniProt Q9NR61 27-524); experiment: ELISA titration, 3-fold dilutions from 20 nM Fab
T2 construct: bought recombinant protein; also called rHuman DLL4; delta-like protein 4

ELISA Signal-blank (100 nM Fab) [1] | fold binding affinity against the antibody mutants with heavy chain H:APFF ALTH [2] [fold] | Binder
0.358 |  | Fab VH5-51_IGHD5-18*01>3_IGHJ4*01 G100K/G104T G24T/S28R/G35V (H:KT TRV) & V3-4_IGLJ1*01 S96M (Fab, V domains shown, Tested as Fab expressed in E. coli) VH: EVQLVQSGAEVKKPGESLKISCKTSGYRFTSYWIVWVRQMPGKGLEWMGIIYPGDSDTRYSPSFQGQVTISADKSISTAYLQWSSLKASDTAMYYCARRKYSYTYDYFDYWGQGTLVTVSS VL: QTVVTQEPSFSVSPGGTVTLTCGLSSGSVSTSYYPSWYQQTPGQAPRTLIYSTNTRSSGVPDRFSGSILGNKAALTITGAQADDESDYYCVLYMGMGISYVFGTGTKVTVL
0.355 |  | Fab VH5-51_IGHD5-18*01>3_IGHJ4*01 G100K/G104T G24T/S28R/G35V (H:KT TRV) & V3-4_IGLJ1*01 S96L (Fab, V domains shown, Tested as Fab expressed in E. coli) VH: EVQLVQSGAEVKKPGESLKISCKTSGYRFTSYWIVWVRQMPGKGLEWMGIIYPGDSDTRYSPSFQGQVTISADKSISTAYLQWSSLKASDTAMYYCARRKYSYTYDYFDYWGQGTLVTVSS VL: QTVVTQEPSFSVSPGGTVTLTCGLSSGSVSTSYYPSWYQQTPGQAPRTLIYSTNTRSSGVPDRFSGSILGNKAALTITGAQADDESDYYCVLYMGLGISYVFGTGTKVTVL
0.499 |  | Fab VH5-51_IGHD5-18*01>3_IGHJ4*01 G100K/G104T G24T/S28R/G35V (H:KT TRV) & V3-4_IGLJ1*01 S96R (Fab, V domains shown, Tested as Fab expressed in E. coli) VH: EVQLVQSGAEVKKPGESLKISCKTSGYRFTSYWIVWVRQMPGKGLEWMGIIYPGDSDTRYSPSFQGQVTISADKSISTAYLQWSSLKASDTAMYYCARRKYSYTYDYFDYWGQGTLVTVSS VL: QTVVTQEPSFSVSPGGTVTLTCGLSSGSVSTSYYPSWYQQTPGQAPRTLIYSTNTRSSGVPDRFSGSILGNKAALTITGAQADDESDYYCVLYMGRGISYVFGTGTKVTVL
0.452 |  | Fab VH5-51_IGHD5-18*01>3_IGHJ4*01 G100K/G104T G24T/S28R/G35V (H:KT TRV) & V3-4_IGLJ1*01 S96V (Fab, V domains shown, Tested as Fab expressed in E. coli) VH: EVQLVQSGAEVKKPGESLKISCKTSGYRFTSYWIVWVRQMPGKGLEWMGIIYPGDSDTRYSPSFQGQVTISADKSISTAYLQWSSLKASDTAMYYCARRKYSYTYDYFDYWGQGTLVTVSS VL: QTVVTQEPSFSVSPGGTVTLTCGLSSGSVSTSYYPSWYQQTPGQAPRTLIYSTNTRSSGVPDRFSGSILGNKAALTITGAQADDESDYYCVLYMGVGISYVFGTGTKVTVL
0.813 |  | Fab VH5-51_IGHD5-18*01>3_IGHJ4*01 G100K/G104T G24T/S28R/G35V (H:KT TRV) & V3-4_IGLJ1*01 S96P (Fab, V domains shown, Tested as Fab expressed in E. coli) VH: EVQLVQSGAEVKKPGESLKISCKTSGYRFTSYWIVWVRQMPGKGLEWMGIIYPGDSDTRYSPSFQGQVTISADKSISTAYLQWSSLKASDTAMYYCARRKYSYTYDYFDYWGQGTLVTVSS VL: QTVVTQEPSFSVSPGGTVTLTCGLSSGSVSTSYYPSWYQQTPGQAPRTLIYSTNTRSSGVPDRFSGSILGNKAALTITGAQADDESDYYCVLYMGPGISYVFGTGTKVTVL
 | ~10 | Fab H:APFF LTH & L6_IGKJ1*01 S28N/S30D/S31H (NDH) (Fab, V domains shown, Fab; also called H:APFF LTH & L:NDH) VH: QVQLVQSGAEVKKPGASVKVSCKASGYTFTSYYMHWVRQAPGQGLEWMGIILPTGHSTSYAQKFQGRVTMTRDTSTSTVYMELSSLRSEDTAVYYCAREEYAPFSAEYFQFWGQGTLVTVSS VL: EIVLTQSPATLSLSPGERATLSCRASQNVDHYLAWYQQKPGQAPRLLIYDASNRATGIPARFSGSGSGTDFTLTISSLEPEDFAVYYCQQRSNWPPWTFGQGTKVEIKR
 | ~10 | Fab H:APFF LTH & L6_IGKJ1*01 S28N/S30D/S31H S52L/A55G (NDH LG) (Fab, V domains shown, Fab; also called H:APFF LTH & L:NDH LG) VH: QVQLVQSGAEVKKPGASVKVSCKASGYTFTSYYMHWVRQAPGQGLEWMGIILPTGHSTSYAQKFQGRVTMTRDTSTSTVYMELSSLRSEDTAVYYCAREEYAPFSAEYFQFWGQGTLVTVSS VL: EIVLTQSPATLSLSPGERATLSCRASQNVDHYLAWYQQKPGQAPRLLIYDALNRGTGIPARFSGSGSGTDFTLTISSLEPEDFAVYYCQQRSNWPPWTFGQGTKVEIKR
